One molecule from PMC3130265 can be followed below.

The series has as its target GST-Sam68(1-277) (UniProt Q60749 1-277). Nature of the series: EMSA. A general note: In EMSA bound probe runs differently from free probe, usually more slowly.

Sequence of GST-Sam68(1-277) (Q60749 1-277): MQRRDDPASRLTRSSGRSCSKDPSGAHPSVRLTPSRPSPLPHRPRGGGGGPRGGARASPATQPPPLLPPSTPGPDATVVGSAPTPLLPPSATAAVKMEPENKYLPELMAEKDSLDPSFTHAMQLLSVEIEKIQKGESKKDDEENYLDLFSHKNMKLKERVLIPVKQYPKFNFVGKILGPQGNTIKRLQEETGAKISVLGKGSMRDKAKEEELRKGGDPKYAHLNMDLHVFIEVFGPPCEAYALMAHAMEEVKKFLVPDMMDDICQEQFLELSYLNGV

B1: Sgce WT probe (intron 7/exon 8 boundary) (ssRNA)
RNA: UAUUUAAUUCAUAAAUUUUGUUUUGUUUCUAGGGA
As for B1, the binding result is recorded as “binds”.
